The values that follow come from patent US20240301023A1 (PREVECEUTICAL MEDICAL, published 2024).

Square brackets hold non-standard residues; d marks the D form. Primed or numbered codes have the meaning given here. Ends that are not written are not given here. Phe(4-NO2) = N[C@@H](Cc1ccc([N+](=O)[O-])cc1)C(=O)O; Phe(4-Cl) = N[C@@H](Cc1ccc(Cl)cc1)C(=O)O; Phe(4-F) = N[C@@H](Cc1ccc(F)cc1)C(=O)O; NMA″ = not defined here; NMA = N-methylarginine; GABA = NCCCC(=O)O; Sar = CNCC(=O)O Bounds are passed on as bounds.

Common to all, as to test: cell-based or functional assay
Assay [1] deals with Delta opioid receptor (DOR).
Assay [2] has as its target Mu opioid receptor (MOR).
In assay [3] the target is Delta opioid receptor (DOR). This is another data set of the same source.
Assay [4] deals with Mu opioid receptor (MOR). The source holds these as a separate data set.
Sequence of Mu opioid receptor (MOR) (P35372 whole entry): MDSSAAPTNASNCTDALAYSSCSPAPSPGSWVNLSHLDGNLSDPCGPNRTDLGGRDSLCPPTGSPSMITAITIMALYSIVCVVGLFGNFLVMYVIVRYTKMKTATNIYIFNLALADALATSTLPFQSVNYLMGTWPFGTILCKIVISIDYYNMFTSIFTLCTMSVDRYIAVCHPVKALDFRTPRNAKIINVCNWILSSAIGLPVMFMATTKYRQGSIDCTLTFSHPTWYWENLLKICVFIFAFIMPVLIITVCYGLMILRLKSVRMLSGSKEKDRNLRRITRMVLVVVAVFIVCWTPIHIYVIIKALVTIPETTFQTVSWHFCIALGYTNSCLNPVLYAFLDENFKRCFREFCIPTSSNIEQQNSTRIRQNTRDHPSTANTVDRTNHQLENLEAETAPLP
The target in assay [5] is T1, Kappa opioid receptor (KOR) (Homo sapiens (Human), UniProt P41145 1-380).
T1 sequence (P41145 whole entry, form in doubt): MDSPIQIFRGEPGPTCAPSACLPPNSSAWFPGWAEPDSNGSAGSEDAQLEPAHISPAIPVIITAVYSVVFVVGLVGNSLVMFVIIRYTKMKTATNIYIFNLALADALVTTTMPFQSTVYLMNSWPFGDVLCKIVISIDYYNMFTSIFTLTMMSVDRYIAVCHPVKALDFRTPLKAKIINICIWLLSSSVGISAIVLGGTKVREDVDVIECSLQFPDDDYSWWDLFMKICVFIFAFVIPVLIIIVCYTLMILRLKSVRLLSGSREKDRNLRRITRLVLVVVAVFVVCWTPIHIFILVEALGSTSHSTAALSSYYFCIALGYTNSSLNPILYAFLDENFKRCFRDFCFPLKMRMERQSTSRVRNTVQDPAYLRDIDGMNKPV
Assay [6] addresses T1, Kappa opioid receptor (KOR). This is another data set of the same source.

B1: SEQ ID NO. 4: NH2-Tyr-Sar-(4-NO2)Phe-Leu-Arg-DArg-NH2 (peptide)
peptide: H-Y[Sar][Phe(4-NO2)]LR[dR]-NH2
B1: the results for the “cAMP assay (ALPHAScreen), result at 1 µM peptide” value (shortened to “cAMP assay … at 1 µM peptide”) (in assay [1]; with Mu opioid receptor (MOR) [2]) were -0.75 and 0.17, respectively. Besides, the “cAMP assay (ALPHAScreen), result at 10 µM peptide” value (from here on “cAMP assay … at 10 µM peptide”) in assay [1] turned out to be 2.04; with Mu opioid receptor (MOR) [2], 2.52. Further, the “Activity (EC50, nM), cAMP assay” value (in assay [3]; in the assay with Mu opioid receptor (MOR) [4]) was above 10000 nM in each case.

B2: SEQ ID NO. 12: NH2-Tyr-Sar-(4-F)Phe-Leu-Arg-DArg-NH2 (peptide)
peptide: H-Y[Sar][Phe(4-F)]LR[dR]-NH2
For the molecule B2, the “Activity (EC50, nM), cAMP assay” value in assay [5] was 6.7 nM; in assay [3], above 10000 nM; in the assay with Mu opioid receptor (MOR) [4], 3450 nM.

B3: SEQ ID NO. 28: NH2-Tyr-Sar-(4-Cl)Phe-Leu-Arg-DArg-C7H14-COOH (peptide)
peptide: H-Y[Sar][Phe(4-Cl)]LR[dR]
modifications: not fully specified (C-terminus); printed as NH2-Tyr-Sar-(4-Cl)Phe-Leu-Arg-DArg-C7H14-COOH
Take B3: the “Activity (EC50, nM), cAMP assay” value is 2.33 nM in assay [5], above 10000 nM in assay [3] and above 10000 nM with Mu opioid receptor (MOR) [4].

B4: SEQ ID NO. 6: NH2-Tyr-Sar-Phe-Leu-DArg-Arg-NH2 (peptide)
peptide: H-Y[Sar]FL[dR]R-NH2
With B4, the entries for the “cAMP assay … at 1 µM peptide” value (in assay [6]; in assay [1]; with Mu opioid receptor (MOR) [2]) were 14.2, -0.03 and 1.04, respectively. The results for the “cAMP assay … at 10 µM peptide” value (in assay [6]; in assay [1]; with Mu opioid receptor (MOR) [2]) were 35.1, 2.25 and 7.84, respectively.

B5: SEQ ID NO. 18: NH2-Tyr-Sar-(4-NO2)Phe-Leu-Arg-NMA-NH2 (peptide)
peptide: H-Y[Sar][Phe(4-NO2)]LRX-NH2
modifications: not fully specified (residue 6); printed as NH2-Tyr-Sar-(4-NO2)Phe-Leu-Arg-NMA-NH2
For the molecule B5, the “Activity (EC50, nM), cAMP assay” value (in assay [3]; with Mu opioid receptor (MOR) [4]) was above 10000 nM in each case.

B6: SEQ ID NO. 5: NH2-Tyr-Sar-(4-NO2)Phe-Leu-DArg-Arg-NH2 (peptide)
peptide: H-Y[Sar][Phe(4-NO2)]L[dR]R-NH2
For the molecule B6, the “cAMP assay … at 1 µM peptide” value in assay [6] was 33.4; in assay [1] it was 0.05; in the assay with Mu opioid receptor (MOR) [2], -0.05. Moreover, the “cAMP assay … at 10 µM peptide” value in assay [6] is 43.1; in assay [1], 2.02; with Mu opioid receptor (MOR) [2] it was 4.32.

B7: SEQ ID NO. 25: NH2-Tyr-Sar-(4-Cl)Phe-Leu-Arg-DArg-Ile-DArg-NH2 (peptide)
peptide: H-Y[Sar][Phe(4-Cl)]LR[dR]I[dR]-NH2
In the case of B7, the entries for the “Activity (EC50, nM), cAMP assay” value (in assay [3]; with Mu opioid receptor (MOR) [4]) were above 10000 nM and 1610 nM, respectively.

B8: SEQ ID NO. 16: NH2-Tyr-Sar-(4-Cl)Phe-Leu-Lys-DArg-NH2 (peptide)
peptide: H-Y[Sar][Phe(4-Cl)]LK[dR]-NH2
SMILES: CC(C)C[C@H](NC(=O)[C@H](Cc1ccc(Cl)cc1)NC(=O)CN(C)C(=O)[C@@H](N)Cc1ccc(O)cc1)C(=O)N[C@@H](CCCCN)C(=O)N[C@H](CCCNC(=N)N)C(N)=O
Consider B8, for which the figures for the “Activity (EC50, nM), cAMP assay” value (in assay [5]; in the assay with Mu opioid receptor (MOR) [4]) were 26 nM and above 10000 nM, respectively.

B9: SEQ ID NO. 17: NH2-Tyr-Sar-(4-Cl)Phe-Leu-Arg-NMA-NH2 (peptide)
peptide: H-Y[Sar][Phe(4-Cl)]LR[NMA″]-NH2
modifications: reading uncertain; also: printed as NH2-Tyr-Sar-(4-Cl)Phe-Leu-Arg-NMA-NH2
On to B9, for which the “Activity (EC50, nM), cAMP assay” value in assay [5] is 3.9 nM; with Mu opioid receptor (MOR) [4], above 10000 nM.

B10: SEQ ID NO. 20: NH2-Tyr-Sar-(4-Cl)Phe-Leu-Arg-DArg-Ile-Arg-NH2 (peptide)
peptide: H-Y[Sar][Phe(4-Cl)]LR[dR]IR-NH2
On to B10, for which the figures for the “Activity (EC50, nM), cAMP assay” value (in assay [3]; with Mu opioid receptor (MOR) [4]) were 3580 nM and above 10000 nM, respectively.

B11: SEQ ID NO. 13: NH2-Tyr-Sar-(4-Cl)Phe-Leu-NMA-DArg-NH2 (peptide)
peptide: H-Y[Sar][Phe(4-Cl)]LX[dR]-NH2
modifications: not fully specified (residue 5); printed as NH2-Tyr-Sar-(4-Cl)Phe-Leu-NMA-DArg-NH2
Consider B11, for which the results for the “Activity (EC50, nM), cAMP assay” value (in assay [5]; in assay [3]; in the assay with Mu opioid receptor (MOR) [4]) were 4.54 nM, above 10000 nM and above 10000 nM, respectively.

B12: SEQ ID NO. 10: NH2-Tyr-Sar-(4-NO2)Phe-Leu-DLys-DArg-NH2 (peptide)
peptide: H-Y[Sar][Phe(4-NO2)]L[dK][dR]-NH2
Consider B12, for which the figures for the “cAMP assay … at 1 µM peptide” value (in assay [6]; in assay [1]; with Mu opioid receptor (MOR) [2]) were 8.47, -3 and -1.27, respectively. Moreover, the “cAMP assay … at 10 µM peptide” value was 25.1 in assay [6], -0.95 in assay [1] and 0.02 with Mu opioid receptor (MOR) [2].

B13: SEQ ID NO. 24: NH2-Tyr-Sar-(4-Cl)Phe-Leu-Arg-DArg-C7H14-CONH2 (peptide)
peptide: H-Y[Sar][Phe(4-Cl)]LR[dR]-{C7H14‑CONH2}
As for B13, the “Activity (EC50, nM), cAMP assay” value (in assay [3]; with Mu opioid receptor (MOR) [4]) was above 10000 nM each time.

B14: SEQ ID NO. 9: NH2-Phe-Sar-(4-NO2)Phe-Leu-DArg-DArg-NH2 (peptide)
peptide: H-F[Sar][Phe(4-NO2)]L[dR][dR]-NH2
SMILES: CC(C)C[C@H](NC(=O)[C@H](Cc1ccc([N+](=O)[O-])cc1)NC(=O)CN(C)C(=O)[C@@H](N)Cc1ccccc1)C(=O)N[C@H](CCCNC(=N)N)C(=O)N[C@H](CCCNC(=N)N)C(N)=O
In the case of B14, the “cAMP assay … at 1 µM peptide” value was 2.46 in assay [6], -0.5 in assay [1] and -0.97 in the assay with Mu opioid receptor (MOR) [2]. Also, the “cAMP assay … at 10 µM peptide” value was 23.1 in assay [6], 1.83 in assay [1] and -0.64 with Mu opioid receptor (MOR) [2].

B15: SEQ ID NO. 31: NH2-Tyr-Sar-(4-NO2)Phe-Leu-Arg-DArg-C7H14-CONH2 (peptide)
peptide: H-Y[Sar][Phe(4-NO2)]LR[dR]-{C7H14‑CONH2}
Regarding B15, the “Activity (EC50, nM), cAMP assay” value in assay [5] is 2.49 nM; in assay [3] it was above 10000 nM; with Mu opioid receptor (MOR) [4], above 10000 nM.

B16: SEQ ID NO. 14: NH2-Tyr-Sar-(4-F)Phe-Leu-NMA-DArg-NH2 (peptide)
peptide: H-Y[Sar][Phe(4-F)]L[NMA][dR]-NH2
Consider B16, for which the entries for the “Activity (EC50, nM), cAMP assay” value (in assay [5]; in assay [3]; with Mu opioid receptor (MOR) [4]) were 11.6 nM, 1660 nM and 4000 nM, respectively.

B17: SEQ ID NO. 7: NH2-Tyr-Sar-Phe-Leu-DArg-DArg-NH2 (peptide)
peptide: H-Y[Sar]FL[dR][dR]-NH2
With B17, the “cAMP assay … at 1 µM peptide” value in assay [6] was 18.3; in assay [1], -0.68; with Mu opioid receptor (MOR) [2], 0.13. The results for the “cAMP assay … at 10 µM peptide” value (in assay [6]; in assay [1]; with Mu opioid receptor (MOR) [2]) were 36, 2.53 and 4.19, respectively.

B18: SEQ ID NO. 1: NH2-Tyr-Gaba-Phe-Leu-Arg-Arg-NH2 (peptide)
peptide: H-Y[GABA]FLRR-NH2
SMILES: CC(C)C[C@H](NC(=O)[C@H](Cc1ccccc1)NC(=O)CCCNC(=O)[C@@H](N)Cc1ccc(O)cc1)C(=O)N[C@@H](CCCNC(=N)N)C(=O)N[C@@H](CCCNC(=N)N)C(N)=O
For the molecule B18, the “cAMP assay … at 1 µM peptide” value is 4.23 in assay [6], 2.57 in assay [1] and -6.78 with Mu opioid receptor (MOR) [2]. Also, the “cAMP assay … at 10 µM peptide” value in assay [6] came out at 22.9; in assay [1] it was 19.6; with Mu opioid receptor (MOR) [2], 7.28.
